Assay results published in article PMC11084278 (International Journal of Molecular Sciences, 2024).
Marks after values point to notes of the source that are not given here.

Key:
NLuc-CXCR4 [1] = target: T1, NLuc-CXCR4 (Homo sapiens, UniProt P61073); experiment: NanoBRET saturation binding to HEK293T membranes expressing NLuc-CXCR4; parameters: 5HT3a signal peptide (N); host or cells: HEK293T, transient; membrane preparation; settings: non-specific binding with 10 µM IT1t, mean ± SD
Protocol: (§1) HEK293T cells (2 × 10^6) were seeded in 10 cm^2 culture dishes. […] After two days, the cells were collected in PBS and centrifuged at 2700 rpm at 4 °C. Next, the cell pellet was resuspended in ice-cold membrane buffer (15 mM of Tris, 0.3 mM of EDTA, 2 mM of MgCl2, pH 7.4 at 4 °C) and homogenized by plunging the pestle using 10 strokes at 1100 rpm. The cell homogenates were exposed to two freeze and thaw cycles using liquid nitrogen and were centrifuged at 25,000 rpm. The pellet was resuspended in Tris-sucrose buffer (20 mM of Tris, 250 mM of Sucrose, pH 7.4 at 4 °C). Finally, cell membranes were homogenized using a 23-gauge needle, followed by snap-freezing with liquid nitrogen and then stored at −80 °C.
(§2) For saturation binding experiments, the KD was obtained using one-site total and non-specific binding. For binding experiments, pIC50 values were obtained using a one-site pIC50 model. The equilibrium dissociation constants (Ki) of unlabeled ligands were subsequently calculated using the Cheng−Prusoff equation. (1) […] where [L] is the concentration of the labeled ligand and KD is the equilibrium dissociation constant of the labeled ligand.

NLuc-ACKR3 [2] = target: NLuc-ACKR3 (Homo sapiens, UniProt P25106); experiment: NanoBRET competition binding versus AZDye-labeled CXCL12 on NLuc-ACKR3 membranes; parameters: 5HT3a signal peptide (N); host or cells: HEK293T, transient; membrane preparation
Protocol: as §1
All experiments were analyzed using Graphpad Prism 9.0. For binding experiments, pIC50 values were obtained using a one-site pIC50 model using global fitting with shared non-specific binding values.
as §2

CXCR4 = CXCR4 (Homo sapiens, UniProt P61073); experiment: CXCR4-mediated inhibition of isoprenaline-induced intracellular cAMP (FRET-based EPAC sensor) in HEK293 cells; format: cell-based; settings: HEK293 cells stably expressing CXCR4 and EPAC sensor; 100 nM isoprenaline; mean ± SD
Protocol: Human embryonic kidney 293 cells stably co-expressing CXCR4 and the FRET-based EPAC sensor with mCerulean and mCitrine as a FRET pair were kindly provided by Dr. M. Zimmermann (Interax Biotech, Zurich, Switzerland), and were cultured in DMEM supplemented with 10% FBS and penicillin ([…]), streptomycin ([…]), zeocin (0.06 mg/mL) and G418 (0.6 mg/mL) at 37 °C with 5% CO2.
HEK293 cells stably expressing CXCR4 and a FRET-based EPAC sensor were seeded into a 96-well black plate (0.5 × 10^6/well). […] Fluorescence was measured using the following parameters: excitation at 430–15 nm, and emission at 530–20 and 480–20 nm using the CLARIOstar Plus (BMG Labtech, Ortenberg, Germany). The FRET ratio was calculated by dividing the signal of the acceptor at 530 nm by the donor signal at […].

NLuc-CXCR4 [3] = target: T1, NLuc-CXCR4; experiment: FRET or BRET; NanoBRET competition binding against CXCL12-AZD546 (0.3 nM on NLuc-ACKR3, 10 nM on NLuc-CXCR4 HEK293T membranes) with increasing unlabeled ligand; HBSS with 0.2% BSA; 1 h at room temperature; Ki by Cheng-Prusoff
NLuc-CXCR4 [4] = target: T1, NLuc-CXCR4; experiment: FRET or BRET; NanoBRET competition binding against CXCL12-AZD594 (0.3 nM on NLuc-ACKR3, 10 nM on NLuc-CXCR4 HEK293T membranes) with increasing unlabeled ligand; HBSS with 0.2% BSA; 1 h at room temperature; Ki by Cheng-Prusoff
NLuc-CXCR4 [5] = target: T1, NLuc-CXCR4; experiment: FRET or BRET; NanoBRET competition binding against CXCL12-AZD647 (0.3 nM on NLuc-ACKR3, 10 nM on NLuc-CXCR4 HEK293T membranes) with increasing unlabeled ligand; HBSS with 0.2% BSA; 1 h at room temperature; Ki by Cheng-Prusoff
NLuc-CXCR4 [6] = target: T1, NLuc-CXCR4; experiment: FRET or BRET; NanoBRET competition binding against CXCL12-AZD488 (0.3 nM on NLuc-ACKR3, 10 nM on NLuc-CXCR4 HEK293T membranes) with increasing unlabeled ligand; HBSS with 0.2% BSA; 1 h at room temperature; Ki by Cheng-Prusoff
[7] = target: HA-tagged ACKR3 C-terminally fused to SmBit (UniProt P25106)
NLuc-CXCR4 [8] = target: T1, NLuc-CXCR4
NLuc-CXCR3 [9] = target: T2, NLuc-CXCR3 (Homo sapiens, UniProt P49682); experiment: Multiplex NanoBRET binding, mixed NLuc-CXCR3 and NLuc-CXCR4 membranes, read at 520 nm (CXCL10-AZD488); settings: mixed (1:1) NLuc-CXCR3 and NLuc-CXCR4 membranes; both CXCL10-AZD488 and CXCL12-AZD647, 10 nM each
T2 construct: 5HT3a signal peptide (N); expressed in transfected cells; host or cells: HEK293T, transient; membrane preparation
T2 sequence (P49682 2-368 limits assumed): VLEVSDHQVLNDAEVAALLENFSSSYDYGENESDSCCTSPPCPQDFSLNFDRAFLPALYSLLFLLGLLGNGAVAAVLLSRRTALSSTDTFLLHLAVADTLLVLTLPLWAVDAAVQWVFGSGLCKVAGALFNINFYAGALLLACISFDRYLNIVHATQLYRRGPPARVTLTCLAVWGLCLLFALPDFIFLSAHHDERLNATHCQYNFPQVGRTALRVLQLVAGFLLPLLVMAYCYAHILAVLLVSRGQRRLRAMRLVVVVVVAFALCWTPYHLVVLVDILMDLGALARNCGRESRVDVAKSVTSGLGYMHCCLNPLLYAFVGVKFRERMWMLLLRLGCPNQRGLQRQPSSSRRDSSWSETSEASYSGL
Protocol: (§3) HEK293T cells (2 × 10^6) were seeded in 10 cm^2 culture dishes. After 24 h, the cells were transfected with 0.25 µg of plasmid DNA encoding human NLuc-ACKR3, NLuc-CXCR4 or NLuc-CXCR3, and 4.75 µg of pcDEF3 plasmid DNA using 30 µg of linear PEI. After two days, the cells were collected in PBS and centrifuged at 2700 rpm at 4 °C. Next, the cell pellet was resuspended in ice-cold membrane buffer (15 mM of Tris, 0.3 mM of EDTA, 2 mM of MgCl2, pH 7.4 at 4 °C) and homogenized by plunging the pestle using 10 strokes at 1100 rpm. The cell homogenates were exposed to two freeze and thaw cycles using liquid nitrogen and were centrifuged at 25,000 rpm. The pellet was resuspended in Tris-sucrose buffer (20 mM of Tris, 250 mM of Sucrose, pH 7.4 at 4 °C). Finally, cell membranes were homogenized using a 23-gauge needle, followed by snap-freezing with liquid nitrogen and then stored at −80 °C.
(§4) NanoBRET was measured after 1 h of incubation at room temperature, as described above.
For saturation binding experiments, the KD was obtained using one-site total and non-specific binding. For binding experiments, pIC50 values were obtained using a one-site pIC50 model. The equilibrium dissociation constants (Ki) of unlabeled ligands were subsequently calculated using the Cheng−Prusoff equation. […]

NLuc-CXCR3 [10] = target: T2, NLuc-CXCR3; experiment: NanoBRET competition binding versus CXCL10-AZD488 on NLuc-CXCR3 membranes only (520 nm)
Protocol: as §3, §4, §2

NLuc-CXCR4 [11] = target: T1, NLuc-CXCR4; experiment: Multiplex NanoBRET binding, mixed NLuc-CXCR3 and NLuc-CXCR4 membranes, read at 640 nm (CXCL12-AZD647); parameters: 5HT3a signal peptide (N); host or cells: HEK293T, transient; membrane preparation; settings: mixed (1:1) NLuc-CXCR3 and NLuc-CXCR4 membranes; both CXCL10-AZD488 and CXCL12-AZD647, 10 nM each
Protocol: as §1, §2

NLuc-ACKR3 [12] = target: T3, NLuc-ACKR3 (human, UniProt P25106 1-362); experiment: FRET or BRET; NanoBRET competition binding against CXCL12-AZD488 (0.3 nM on NLuc-ACKR3, 10 nM on NLuc-CXCR4 HEK293T membranes) with increasing unlabeled ligand; HBSS with 0.2% BSA; 1 h at room temperature; Ki by Cheng-Prusoff; settings: one partner purified
T3 construct: ACKR3 (CXCR7), human; NLuc is preceded by the 5HT3a signal peptide and fused via a Gly-Ser linker (BamHI site) to ACKR3, in pcDNA3.1; also called CXCR7; source: HEK293T, transiently transfected, membrane preparation; not shown: NLuc, N-terminal, kept

NLuc-ACKR3 [13] = target: T3, NLuc-ACKR3; experiment: FRET or BRET; NanoBRET competition binding against CXCL12-AZD594 (0.3 nM on NLuc-ACKR3, 10 nM on NLuc-CXCR4 HEK293T membranes) with increasing unlabeled ligand; HBSS with 0.2% BSA; 1 h at room temperature; Ki by Cheng-Prusoff; settings: one partner purified
NLuc-ACKR3 [14] = target: T3, NLuc-ACKR3; experiment: FRET or BRET; NanoBRET competition binding against CXCL12-AZD546 (0.3 nM on NLuc-ACKR3, 10 nM on NLuc-CXCR4 HEK293T membranes) with increasing unlabeled ligand; HBSS with 0.2% BSA; 1 h at room temperature; Ki by Cheng-Prusoff; settings: one partner purified
NLuc-ACKR3 [15] = target: T3, NLuc-ACKR3; experiment: FRET or BRET; NanoBRET competition binding against CXCL12-AZD647 (0.3 nM on NLuc-ACKR3, 10 nM on NLuc-CXCR4 HEK293T membranes) with increasing unlabeled ligand; HBSS with 0.2% BSA; 1 h at room temperature; Ki by Cheng-Prusoff; settings: one partner purified
[16] = 0.3 nM probe, Cheng-Prusoff, mean ± SD

In the case of “CXCL12-AZD647: CXCL12 tagged at the C-terminus with fluorescent AZDye 647 by click chemistry”, the “pKD for CXCR4” value (NLuc-CXCR4 [1]) is reported as 7.9 ± 0.1.

In the case of COc1cc(C(=O)N(CCC2CCCN2C)CC(C)=Cc2ccccc2F)cc(OC)c1OC (centres unmarked) [VUF15485], the “Binding affinity (pKi) for NLuc-ACKR3, probe CXCL12-AZD488” value (NLuc-ACKR3 [2]; [16]) is reported as 7.9 ± 0.1 ^b, the “Binding affinity (pKi) for NLuc-ACKR3, probe CXCL12-AZD546” value (NLuc-ACKR3 [2]; [16]) is reported as 7.9 ± 0.1 and the “Binding affinity (pKi) for NLuc-ACKR3, probe CXCL12-AZD594” value (NLuc-ACKR3 [2]; [16]) is reported as 8.1 ± 0.2. The “Binding affinity (pKi) for NLuc-ACKR3, probe CXCL12-AZD647” value (NLuc-ACKR3 [2]; [16]) was 8.2 ± 0.1 and the “fold lower affinity for ACKR3 when tested in competition with CXCL12-AZD488” value (NLuc-ACKR3 [2]; compared with the other three probes) was 5 fold.

For “CXCL12-AZD546: CXCL12 tagged at the C-terminus with fluorescent AZDye 546 by click chemistry”, the “pKD for CXCR4” value (NLuc-CXCR4 [1]) was 8.0 ± 0.0 and the “cAMP by CXCR4 (pEC50)” value (CXCR4) was 8.6 ± 0.3.

Work on “Human recombinant CXCL12 (unlabeled) (from UniProt P48061 22-93) (ligand)” yielded a pKi (NLuc-CXCR4 [3]) of 9, a pKi (NLuc-CXCR4 [4]) of 8.2 and a pKi (NLuc-CXCR4 [5]) of 8.4. The pKi (NLuc-CXCR4 [6]) was 8.4, the pEC50 of β-arrestin2 recruitment to ACKR3 (NanoBiT complementation, HEK293T cells) [7] was 8 and the pEC50 of inhibition of isoprenaline-induced cAMP (FRET-based EPAC sensor) in HEK293 cells stably expressing CXCR4 (not the NLuc fusion) (NLuc-CXCR4 [8]) was 9.7.

With “CXCL12-AZD594: CXCL12 tagged at the C-terminus with fluorescent AZDye 594 by click chemistry” the “pKD for CXCR4” value (NLuc-CXCR4 [1]) was 7.6 ± 0.1 and the “cAMP by CXCR4 (pEC50)” value (CXCR4) was 8.9 ± 0.2.

With CCNC(=O)c1cnc(N2CCN(C3CCN(Cc4ccc(Cl)cc4)CC3)[C@@H](CC)C2)c(Cl)c1 [VUF11211] the “pKi, Multiplex at 520 nm” value (NLuc-CXCR3 [9]) was 8.8 ± 0.1, the “pKi, CXCR3 Only at 520 nm” value (NLuc-CXCR3 [10]; 10 nM CXCL10-AZD488, NLuc-CXCR3 membranes only) was 8.8 ± 0.2 and the “fold higher than the Ki from competition binding with [125I]-CXCL11” value (NLuc-CXCR3 [10]; comparison with ref 23) was 10 fold. For the same molecule, the “fold lower than the Ki from competition binding with [3H]-VUF11211” value (NLuc-CXCR3 [10]; comparison with ref 23) was 1.5 fold and the “pKi, Multiplex at 640 nm” value (NLuc-CXCR4 [11]) was “no clear competition binding curve was detected”.

For CC1(C)CN2C(CSC(=NC3CCCCC3)NC3CCCCC3)=CSC2=N1 [IT1t], the “pKi, Multiplex at 520 nm” value (NLuc-CXCR3 [9]) was “no clear competition binding curve was detected”.

B1: CXCL11 (unlabeled) (ligand, UniProt O14625 22-94, looked up)
chain: FPMFKRGRCLCIGPGVKAVKVADIEKASIMYPSNNCDKIEVIITLKENKGQRCLNPKSKQARLIIKKVERKNF
notes: CXCL11, unlabeled chemokine
B1 showed a pKi (NLuc-ACKR3 [12]) of 9.4, a pKi (NLuc-ACKR3 [13]) of 9.5 and a pKi (NLuc-ACKR3 [14]) of 9.4. The pKi (NLuc-ACKR3 [15]) was 9.2.
